Test results from IntAct's records for PubMed 25710501.

B1: Granule-bound starch synthase 1, chloroplastic/amyloplastic (Arabidopsis thaliana (Mouse-ear cress)), Q9MAQ0 (parent)
chain: MATVTASSNFVSRTSLFNNHGASSCSDVAQITLKGQSLTHCGLRSFNMVDNLQRRSQAKPVSAKSSKRSSKVKTAGKIVCEKGMSVIFIGAEVGPWSKTGGLGDVLGGLPPALAARGHRVMTICPRYDQYKDAWDTCVVVQIKVGDKVENVRFFHCYKRGVDRVFVDHPIFLAKVVGKTGSKIYGPITGVDYNDNQLRFSLLCQAALEAPQVLNLNSSKYFSGPYGEDVVFVANDWHTALLPCYLKSMYQSRGVYMNAKVVFCIHNIAYQGRFAFDDYSLLNLPISFKSSFDFMDGYEKPVKGRKINWMKAAILEAHRVLTVSPYYAQELISGVDRGVELHKYLRMKTVSGIINGMDVQEWNPSTDKYIDIKYDITTVTDAKPLIKEALQAAVGLPVDRDVPVIGFIGRLEEQKGSDILVEAISKFMGLNVQMVILGTGKKKMEAQILELEEKFPGKAVGVAKFNVPLAHMITAGADFIIVPSRFEPCGLIQLHAMRYGTVPIVASTGGLVDTVKDGYTGFHIGRFNVKCEVVDPDDVIATAKAVTRAVAVYGTSAMQEMVKNCMDQDFSWKGPARLWEKVLLSLNVAGSEAGTEGEEIAPLAKENVATP
partner: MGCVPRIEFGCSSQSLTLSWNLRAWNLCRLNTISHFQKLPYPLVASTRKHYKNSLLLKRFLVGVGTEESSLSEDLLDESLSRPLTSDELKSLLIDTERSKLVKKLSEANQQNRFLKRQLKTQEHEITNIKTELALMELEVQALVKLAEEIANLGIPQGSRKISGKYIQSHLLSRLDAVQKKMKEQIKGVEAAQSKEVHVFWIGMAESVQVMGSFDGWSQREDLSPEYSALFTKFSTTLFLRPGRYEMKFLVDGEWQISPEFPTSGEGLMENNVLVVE

Variants of: B1
Conditions: with ptst_arath PTST

Row | effect of a mutation on the interaction | Variant
1 | disrupting interaction strength | E452K
2 | decreasing interaction strength | E449K
3 | decreasing interaction strength | K441E
4 | disrupting interaction strength | K441E;E452K

Variants of: B1
Conditions: with ptst_arath PTST
Remark: another data set of the same source

Row | effect of a mutation on the interaction | Variant
5 | decreasing interaction strength | E452K
6 | decreasing interaction strength | K441E;E452K
